# From patent publication US20160281104A1 (KOREA ATOMIC ENERGY RESEARCH INSTITUTE, published 2016)
# B1: alkyl hydroperoxide reductase subunit F (AhpF) protein of Pseudomonas aeruginosa (enzyme)
# chain: MLDANLKTQLKAYLEKVSQPFEIVASLDDSDKSRELLGLLQDIVGLTDKITLKTDGSDARKPSFSLNRPGADIGLRFAGIPMGHEFTSLVLALLQVGGHPSKLDADVIEQVKGIEGTFEFETYFSLSCQNCPDVVQALNLMAVLNPNIRHVAIDGALFQDEVEARQIMSVPSIYLNGEVFGQGRMGVEEILAKIDTGAAARDAEKLTARDAFDVLVVGGGPAGAAAAIYAARKGIRTGVAAERFGGQVLDTMAIENFISVQETEGPKLARALEEHVRHYEVDIMNLQRASKLVPAKNAGELHEVRFESGGSLKAKTLILATGARWREMGVPGEQEYKAKGVCFCPHCDGPLFKGKRVAVIGGGNSGVEAAIDLAGIVAHVTLLEFDSKLRADAVLQRKLYSLPNVEVITSALTSEVKGDGQKVTGLVYKDRNSEEFKSIELEGIFVQIGLLPNTEWLKGSVELSPRGEIIVDARGETSLPGIFAAGDVTTVPYKQIVIAVGEGAKASLSAFDHLIRTSAPE
# notes: Recombinant protein cloned from P. aeruginosa PAO1 genomic DNA and expressed from pET28a in E. coli BL21(DE3); It was purified on Ni-NTA and released from the resin with thrombin, so the His tag was cleaved; also called PaAhpF; AhpF(PA)
# Biological target: the molecule itself
# Test: size exclusion chromatography (Superdex 200) and native PAGE; self-association
protein,measurement,value
B1,binding result,binds
